In US7754689B2, “Finger-1 peptide analogs of the TGF-β superfamily” (Wyeth LLC, priority 2006, dated 2010):
No end group written: not given here.

Tests used:
BMP-12 [1] = target: T1, BMP-12 (Homo sapiens, UniProt Q7Z4P5); assay: Affinity column chromatography, capture and elution of BMP-12; type: binding; details: for capture of BMP-12 by column with immobilized ligand: high salt / high ionic strength load; for elution of BMP-12 from column with immobilized ligand: washes, then gradient to 50 mM acetic acid pH 3, then 6M GuHCl
T1 sequence (Q7Z4P5 322-450): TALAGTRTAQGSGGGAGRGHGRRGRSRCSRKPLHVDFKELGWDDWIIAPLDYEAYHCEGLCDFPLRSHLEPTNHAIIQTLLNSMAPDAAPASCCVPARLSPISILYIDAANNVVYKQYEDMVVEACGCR
Protocol: (§1) BMP-12 was immobilized on NHS-activated Sepharose™ beads at a ratio of about 20 mg:4 mL and the resulting media combined with water or neutral saline buffer to prepare a column. CHO-conditioned media augmented with 1.2 M NaCl was loaded onto the column. In some cases, the media was preconcentrated with respect to BMP before loading. The column was washed with 15 CV (column volumes) of 1.2 M NaCl in 40 mM Na2HPO4 at pH 7.2, followed by 0.5 M arginine/0.5 M NaCl in 20 mM Tris at pH 7.5 (15 CV) and a low salt wash (50 mM ammonium acetate at pH 7, 15 CV). […] Finally, the column was eluted with 5CV of the acetic acid solution with 6M guanidine hydrochloride (GuHCl).
BMP-12 was loaded and eluted from a BMP-12 affinity column as in Example 1.
BMP-12 was purified using a column prepared with the BMP-12 wild type peptide described in Example 7.

BMP-3 = target: T2, BMP-3 (Homo sapiens, UniProt P12645); assay: Affinity column chromatography, capture and elution of BMP-3; type: binding; details: for capture of BMP-3 by column with immobilized ligand: CHO-conditioned media with 1.2 M NaCl (high salt) load; for elution of BMP-3 from column with immobilized ligand: washes, then gradient to 50 mM acetic acid pH 3, then 6M GuHCl
T2 construct: a propeptide fragment copurifies along with the mature protein; made in house; host or cells: CHO cells (conditioned medium)
T2 sequence (P12645 363-472): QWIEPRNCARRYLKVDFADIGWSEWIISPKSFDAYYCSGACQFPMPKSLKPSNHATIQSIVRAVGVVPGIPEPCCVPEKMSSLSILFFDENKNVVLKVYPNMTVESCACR
Protocol: as §1
The eluate was analyzed using HPLC.
4 mL of the resulting resin (1.6×2.0 cm) was used to prepare a column. The column was loaded with BMP-3 and eluted as in Example 1.

GDF-9 = target: T3, GDF-9 (Homo sapiens, UniProt O60383); assay: Affinity column chromatography, capture and elution of GDF-9; type: binding
T3 sequence (O60383 320-454): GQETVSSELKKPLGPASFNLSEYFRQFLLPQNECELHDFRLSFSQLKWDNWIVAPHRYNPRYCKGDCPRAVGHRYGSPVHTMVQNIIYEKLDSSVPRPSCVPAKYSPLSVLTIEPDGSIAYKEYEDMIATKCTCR
Protocol: as §1
A lower molecular weight contaminant was also present.

BMP-12 [2] = target: T4, BMP-12 (UniProt Q7Z4P5 322-450, limits assumed); assay: peptide resin, filter plate; load 1: 50 mM Acetic Acid, 0.1 M NaCl, pH 2.9
T4 construct: also called BMP12/GDF7
T4 sequence (looked up): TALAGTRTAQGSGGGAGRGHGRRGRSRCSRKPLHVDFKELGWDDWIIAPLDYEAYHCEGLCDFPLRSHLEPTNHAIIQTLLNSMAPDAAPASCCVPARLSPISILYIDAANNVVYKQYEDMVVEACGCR
Protocol: (§2) The coupled resins, plus an unconjugated resin for use as a control, were suspended in 16% ethanol, 150 mM NaCl, and 20 mM Tris buffer at pH 7.5 at a 25% v/v ratio (e.g., 25% ethanol, 75% Tris buffer). A Tecan liquid-handling robot was employed to aliquot 200 μL of each slurry into one of eight rows of a 96 well polystyrene filter plate (0.45 μm hydrophilic filters, Whatman catalog number 770-1806). Spinning at 1200 g for 3 min removed the liquid phase, leaving 50 μL of wet resin on the filters. The resins were then equilibrated with the loading buffers listed in Table 6 (K is a coefficient characterizing the strength of protein binding to a particular resin in a particular buffer). […] The resins were loaded by transferring 150 μL from the load plate to the filter plate and then incubating 20 min on a shaking platform to facilitate binding. The filter plate was spun down and the filtrate collected in a 96 well UV plate. The protein concentration in the filtrate, or flow-through, was calculated as $(A280-A320)/1.3$. The filter plate was then washed with 150 μL of 100 mM acetic acid, followed by 150 μL of 4M guanidine-HCl and 50 mM sodium acetate at pH 4.0. The protein concentration was measured in the new filtrate as described above. […] Flow-through and acetic acid elution samples from column 4 of the plate (loaded with MES pH 6) were analyzed on a gel (FIG. 14).

BMP-12 [3] = target: T4, BMP-12; assay: peptide resin, filter plate; load 3: 25 mM Na Acetate pH 5.0
Protocol: as §2

BMP-12 [4] = target: T4, BMP-12; assay: peptide resin, filter plate; load 11: 50 mM Tris, 0.25 M NaCl, 30% MPD, pH 8.0
Protocol: as §2

BMP-12 [5] = target: T4, BMP-12; assay: peptide resin, filter plate; load 10: 50 mM Tris, 0.1 M NaCl, 40% MPD, pH 8.0
Protocol: as §2

BMP-12 [6] = target: T4, BMP-12; assay: peptide resin, filter plate; load 5: 25 mM HEPES pH 7.0
Protocol: as §2

BMP-12 [7] = target: T4, BMP-12; assay: peptide resin, filter plate; load 6: 1M CHES pH 9.7
Protocol: as §2

BMP-12 [8] = target: T4, BMP-12; assay: peptide resin, filter plate; load 4: 25 mM MES pH 6.0
Protocol: as §2

BMP-12 [9] = target: T4, BMP-12; assay: peptide resin, filter plate; load 2: 50 mM Acetic Acid, 0.1 M NaCl, pH 4.0
Protocol: as §2

BMP-12 [10] = target: T4, BMP-12; assay: peptide resin, filter plate; load 12: 50 mM Tris, 0.1 M NaCl, 20% MPD, pH 8.0
Protocol: as §2

In the case of KELGWDDWIIAPLDYEAYHCEGLC [SEQ ID NO: 2], the “capture of BMP-12 by column with immobilized ligand” value (BMP-12 [1]) is reported as “effectively captured”, the “elution of BMP-12 from column with immobilized ligand” value (BMP-12 [1]) is reported as “eluted with acetic acid” and the “capture of BMP-3 by column with immobilized ligand” value (BMP-3) is reported as “effectively captured”. For the same molecule, the “effectiveness of immobilized ligand compared with the BMP-2 mutant” value (BMP-3; in general) was “less effective than the BMP-2 mutant” and the “elution of BMP-3 from column with immobilized ligand” value (BMP-3) was “eluted in acetic acid”.

With SDVGWNDWIVAPPGYHAFYCHGEK [SEQ ID NO: 1] the “elution of GDF-9 from column with immobilized ligand” value (GDF-9) was “eluted with both 500 mM arginine and acetic acid”, the “capture of GDF-9 by column with immobilized ligand” value (GDF-9; high salt solution load) was “effectively captured” and the “capture of BMP-12 by column with immobilized ligand” value (BMP-12 [1]) was “effectively captured”. The “elution of BMP-12 from column with immobilized ligand” value (BMP-12 [1]) was “eluted with acetic acid”, the “capture of BMP-3 by column with immobilized ligand” value (BMP-3) was “effectively captured” and the “elution of BMP-3 from column with immobilized ligand” value (BMP-3) was “eluted, along with a propeptide fragment, in acetic acid”.

B1: BMP2 C-trunc_2 peptide 746 (peptide)
peptide: Ac-LYVSDVGWNDWIVK
modifications: not fully specified (residue 3); printed as Ac-LYV**SDVGWNDWIVK; also: ** after V3 not explained
With B1 the “100 mM HAc elution K” value (BMP-12 [2]) was 3, the “100 mM HAc elution conc” value (BMP-12 [2]) was 0.154 mg/mL and the “4M Gnd, 50 mM NaAc pH 4 Strip Conc” value (BMP-12 [2]) was 0.135 mg/ml. For the same molecule, the “Flow-through K” value (BMP-12 [2]) was 7, the Flow-through conc (BMP-12 [2]) was 0.15 mg/mL and the “100 mM HAc elution K” value (BMP-12 [3]) was 1. For the same molecule, the “100 mM HAc elution conc” value (BMP-12 [3]) was 0.296 mg/mL, the “4M Gnd, 50 mM NaAc pH 4 Strip Conc” value (BMP-12 [3]) was 0.1 mg/ml and the “Flow-through K” value (BMP-12 [3]) was 18. The Flow-through conc (BMP-12 [3]) was 0.07 mg/mL, the “Flow-through K” value (BMP-12 [4]) was 0 and the Flow-through conc (BMP-12 [4]) was 0.515 mg/mL. For the same molecule, the “Flow-through K” value (BMP-12 [5]) was 0, the Flow-through conc (BMP-12 [5]) was 0.505 mg/mL and the “100 mM HAc elution K” value (BMP-12 [6]) was 1. The “100 mM HAc elution conc” value (BMP-12 [6]) was 0.249 mg/mL, the “4M Gnd, 50 mM NaAc pH 4 Strip Conc” value (BMP-12 [6]) was 0.068 mg/ml and the “Flow-through K” value (BMP-12 [6]) was 6. For the same molecule, the Flow-through conc (BMP-12 [6]) was 0.162 mg/mL, the “Flow-through K” value (BMP-12 [7]) was -1 and the Flow-through conc (BMP-12 [7]) was 0.71 mg/mL. For the same molecule, the “100 mM HAc elution K” value (BMP-12 [8]) was 1, the “100 mM HAc elution conc” value (BMP-12 [8]) was 0.32 mg/mL and the “4M Gnd, 50 mM NaAc pH 4 Strip Conc” value (BMP-12 [8]) was 0.07 mg/ml. The “Flow-through K” value (BMP-12 [8]) was 47, the Flow-through conc (BMP-12 [8]) was 0.029 mg/mL and the “100 mM HAc elution K” value (BMP-12 [9]) was 3. The “100 mM HAc elution conc” value (BMP-12 [9]) was 0.208 mg/mL, the “4M Gnd, 50 mM NaAc pH 4 Strip Conc” value (BMP-12 [9]) was 0.162 mg/ml and the “Flow-through K” value (BMP-12 [9]) was 25. For the same molecule, the Flow-through conc (BMP-12 [9]) was 0.052 mg/mL, the “Flow-through K” value (BMP-12 [10]) was 0 and the Flow-through conc (BMP-12 [10]) was 0.486 mg/mL.
